# Tests used:
# HeLa Kyoto [1] = experiment: solubility in G1/S (NP-40 vs SDS abundance) (log2 ratio); higher = more soluble; conditions: cell cycle stage: G1/S
# HeLa Kyoto [2] = experiment: melting temperature (median over replicates), in situ; higher = more thermally stable
# HeLa Kyoto [3] = experiment: solubility change mitosis vs G1/S (difference of NP-40 vs SDS log2 ratios) (log2 ratio difference); higher = more soluble in mitosis
# HeLa Kyoto [4] = experiment: thermal stability score vs G1/S (z-score of summed log2 fold changes over temperatures); higher = more thermally stable than in G1/S
# [5] = cell cycle stage: early G1 (4.5 h after nocodazole release)
# 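Throughout, for melting temperature (median over replicates), in situ: HeLa Kyoto cells synchronized by double thymidine or nocodazole block, proteins quantified by TMT10plex mass spectrometry, three independent biological replicates.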
# 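Throughout, for solubility change mitosis vs G1/S (difference of NP-40 vs SDS log2 ratios): synchronized HeLa Kyoto cells (double thymidine block for G1/S, nocodazole release for mitosis), protein amounts in NP-40 versus SDS lysates quantified by mass spectrometry, three biological replicates.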
# 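Throughout, for solubility in G1/S (NP-40 vs SDS abundance): HeLa Kyoto cells arrested at G1/S by double thymidine block, proteins quantified by TMT10plex mass spectrometry in mild NP-40 versus SDS extracts, three biological replicates.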
# 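Throughout, for thermal stability score vs G1/S (z-score of summed log2 fold changes over temperatures): synchronized HeLa Kyoto cells, proteins quantified by TMT10plex mass spectrometry, three biological replicates, mitosis taken 0.5 h after nocodazole release, G1/S directly after double thymidine block.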
# Sequence of MAT2A (chain, as listed by the source): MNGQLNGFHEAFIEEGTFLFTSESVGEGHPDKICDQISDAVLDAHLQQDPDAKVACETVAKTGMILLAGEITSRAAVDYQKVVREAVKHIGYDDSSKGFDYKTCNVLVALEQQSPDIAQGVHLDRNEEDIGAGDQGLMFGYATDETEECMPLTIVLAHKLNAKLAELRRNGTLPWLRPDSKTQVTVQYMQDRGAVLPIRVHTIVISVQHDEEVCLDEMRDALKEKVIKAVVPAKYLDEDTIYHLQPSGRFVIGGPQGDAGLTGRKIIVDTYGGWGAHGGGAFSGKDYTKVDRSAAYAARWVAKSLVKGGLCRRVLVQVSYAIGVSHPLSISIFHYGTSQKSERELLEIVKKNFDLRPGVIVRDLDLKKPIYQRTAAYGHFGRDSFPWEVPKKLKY
Substance,solubility in G1/S (log2) (HeLa Kyoto [1]),melting temperature (HeLa Kyoto [2]; cell cycle stage: G1/S),melting temperature (HeLa Kyoto [2]; cell cycle stage: mitosis),solubility change mitosis (log2) (HeLa Kyoto [3]),thermal stability score (HeLa Kyoto [4]; [5]),thermal stability score (HeLa Kyoto [4]; cell cycle stage: mitosis)
MASVSALTEELDSITSELHAVEIQIQELTERQQELIQKKKVLTKKIKQCLEDSDAGASNEYDSSPAAWNKEDFPWSGKVKDILQNVFKLEKFRPLQLETINVTMAGKEVFLVMPTGGGKSLCYQLPALCSDGFTLVICPLISLMEDQLMVLKQLGISATMLNASSSKEHVKWVHAEMVNKNSELKLIYVTPEKIAKSKMFMSRLEKAYEARRFTRIAVDEVHCCSQWGHDFRPDYKALGILKRQFPNASLIGLTATATNHVLTDAQKILCIEKCFTFTASFNRPNLYYEVRQKPSNTEDFIEDIVKLINGRYKGQSGIIYCFSQKDSEQVTVSLQNLGIHAGAYHANLEPEDKTTVHRKWSANEIQVVVATVAFGMGIDKPDVRFVIHHSMSKSMENYYQESGRAGRDDMKADCILYYGFGDIFRISSMVVMENVGQQKLYEMVSYCQNISKCRRVLMAQHFDEVWNSEACNKMCDNCCKDSAFERKNITEYCRDLIKILKQAEELNEKLTPLKLIDSWMGKGAAKLRVAGVVAPTLPREDLEKIIAHFLIQQYLKEDYSFTAYATISYLKIGPKANLLNNEAHAITMQVTKSTQNSFRAESSQTCHSEQGDKKMEEKNSGNFQKKAANMLQQSGSKNTGAKKRKIDDA [RECQL],0.0561,54 °C,53.4 °C,-0.174,-1.7,-4.39
MASVTRAVFGELPSGGGTVEKFQLQSDLLRVDIISWGCTITALEVKDRQGRASDVVLGFAELEGYLQKQPYFGAVIGRVANRIAKGTFKVDGKEYHLAINKEPNSLHGGVRGFDKVLWTPRVLSNGVQFSRISPDGEEGYPGELKVWVTYTLDGGELIVNYRAQASQATPVNLTNHSYFNLAGQASPNINDHEVTIEADTYLPVDETLIPTGEVAPVQGTAFDLRKPVELGKHLQDFHLNGFDHNFCLKGSKEKHFCARVHHAASGRVLEVYTTQPGVQFYTGNFLDGTLKGKNGAVYPKHSGFCLETQNWPDAVNQPRFPPVLLRPGEEYDHTTWFKFSVA [GALM],0.236,,51.4 °C,-0.0325,-0.647,-0.863
MAT2A,-0.00612,57 °C,57.3 °C,-0.123,-0.032,0.349
MATAAAAAAVMAPPGCPGSCPNFAVVCSFLERYGPLLDLPELPFPELERVLQAPPPDVGNGEVPKELVELHLKLMRKIGKSVTADRWEKYLIKICQEFNSTWAWEMEKKGYLEMSVECKLALLKYLCECQFDDNLKFKNIINEEDADTMRLQPIGRDKDGLMYWYQLDQDHNVRMYIEEQDDQDGSSWKCIVRNRNELAETLALLKAQIDPVLLKNSSQQDNSSRESPSLEDEETKKEEETPKQEEQKESEKMKSEEQPMDLENRSTANVLEETTVKKEKEDEKELVKLPVIVKLEKPLPENEEKKIIKEESDSFKENVKPIKVEVKECRADPKDTKSSMEKPVAQEPERIEFGGNIKSSHEITEKSTEETEKLKNDQQAKIPLKKREIKLSDDFDSPVKGPLCKSVTPTKEFLKDEIKQEEETCKRISTITALGHEGKQLVNGEVSDERVAPNFKTEPIETKFYETKEESYSPSKDRNIITEGNGTESLNSVITSMKTGELEKETAPLRKDADSSISVLEIHSQKAQIEEPDPPEMETSLDSSEMAKDLSSKTALSSTESCTMKGEEKSPKTKKDKRPPILECLEKLEKSKKTFLDKDAQRLSPIPEEVPKSTLESEKPGSPEAAETSPPSNIIDHCEKLASEKEVVECQSTSTVGGQSVKKVDLETLKEDSEFTKVEMDNLDNAQTSGIEEPSETKGSMQKSKFKYKLVPEEETTASENTEITSERQKEGIKLTIRISSRKKKPDSPPKVLEPENKQEKTEKEEEKTNVGRTLRRSPRISRPTAKVAEIRDQKADKKRGEGEDEVEEESTALQKTDKKEILKKSEKDTNSKVSKVKPKGKVRWTGSRTRGRWKYSSNDESEGSGSEKSSAASEEEEEKESEEAILADDDEPCKKCGLPNHPELILLCDSCDSGYHTACLRPPLMIIPDGEWFCPPCQHKLLCEKLEEQLQDLDVALKKKERAERRKERLVYVGISIENIIPPQEPDFSEDQEEKKKDSKKSKANLLERRSTRTRKCISYRFDEFDEAIDEAIEDDIKEADGGGVGRGKDISTITGHRGKDISTILDEERKENKRPQRAAAARRKKRRRLNDLDSDSNLDEEESEDEFKISDGSQDEFVVSDENPDESEEDPPSNDDSDTDFCSRRLRRHPSRPMRQSRRLRRKTPKKKYSDDDEEEESEENSRDSESDFSDDFSDDFVETRRRRSRRNQKRQINYKEDSESDGSQKSLRRGKEIRRVHKRRLSSSESEESYLSKNSEDDELAKESKRSVRKRGRSTDEYSEADEEEEEEEGKPSRKRLHRIETDEEESCDNAHGDANQPARDSQPRVLPSEQESTKKPYRIESDEEEDFENVGKVGSPLDYSLVDLPSTNGQSPGKAIENLIGKPTEKSQTPKDNSTASASLASNGTSGGQEAGAPEEEEDELLRVTDLVDYVCNSEQL [RSF1],-1.03,49.1 °C,51.7 °C,0.0168,0.31,2.21
MATAAETSASEPEAESKAGPKADGEEDEVKAARTRRKVLSRAVAAATYKTMGPAWDQQEEGVSESDGDEYAMASSAESSPGEYEWEYDEEEEKNQLEIERLEEQLSINVYDYNCHVDLIRLLRLEGELTKVRMARQKMSEIFPLTEELWLEWLHDEISMAQDGLDREHVYDLFEKAVKDYICPNIWLEYGQYSVGGIGQKGGLEKVRSVFERALSSVGLHMTKGLALWEAYREFESAIVEAARLEKVHSLFRRQLAIPLYDMEATFAEYEEWSEDPIPESVIQNYNKALQQLEKYKPYEEALLQAEAPRLAEYQAYIDFEMKIGDPARIQLIFERALVENCLVPDLWIRYSQYLDRQLKVKDLVLSVHNRAIRNCPWTVALWSRYLLAMERHGVDHQVISVTFEKALNAGFIQATDYVEIWQAYLDYLRRRVDFKQDSSKELEELRAAFTRALEYLKQEVEERFNESGDPSCVIMQNWARIEARLCNNMQKARELWDSIMTRGNAKYANMWLEYYNLERAHGDTQHCRKALHRAVQCTSDYPEHVCEVLLTMERTEGSLEDWDIAVQKTETRLARVNEQRMKAAEKEAALVQQEEEKAEQRKRARAEKKALKKKKKIRGPEKRGADEDDEKEWGDDEEEQPSKRRRVENSIPAAGETQNVEVAAGPAGKCAAVDVEPPSKQKEKAASLKRDMPKVLHDSSKDSITVFVSNLPYSMQEPDTKLRPLFEACGEVVQIRPIFSNRGDFRGYCYVEFKEEKSALQALEMDRKSVEGRPMFVSPCVDKSKNPDFKVFRYSTSLEKHKLFISGLPFSCTKEELEEICKAHGTVKDLRLVTNRAGKPKGLAYVEYENESQASQAVMKMDGMTIKENIIKVAISNPPQRKVPEKPETRKAPGGPMLLPQTYGARGKGRTQLSLLPRALQRPSAAAPQAENGPAAAPAVAAPAATEAPKMSNADFAKLFLRK [SART3],-0.112,48.2 °C,49.2 °C,-0.103,1.98,4.74
MATAALLRGATPGRGGPVWRWRLRAAPRCRLAHSSCSPGGDPTAGAAWACFRLDGRTLLRVRGPDAAPFLLGLLTNELPLPSPAAAGAPPAARAGYAHFLNVQGRTLYDVILYGLQEHSEVSGFLLECDSSVQGALQKHLALYRIRRKVTVEPHPELRVWAVLPSSPEACGAASLQERAGAAAILIRDPRTARMGWRLLTQDEGPALVPGGRLGDLWDYHQHRYLQGVPEGVRDLPPGVALPLESNLAFMNGVSFTKGCYIGQELTARTHHMGVIRKRLFPVRFLDPLPTSGITPGATVLTASGQTVGKFRAGQGNVGLALLWSEKIKGPLHIRASEGAQVALAASVPDWWPTVSK [IBA57],-0.246,52.8 °C,52.4 °C,0.132,0.0549,-0.552
MATALALRSLYRARPSLRCPPVELPWAPRRGHRLSPADDELYQRTRISLLQREAAQAMYIDSYNSRGFMINGNRVLGPCALLPHSVVQWNVGSHQDITEDSFSLFWLLEPRIEIVVVGTGDRTERLQSQVLQAMRQRGIAVEVQDTPNACATFNFLCHEGRVTGAALIPPPGGTSLTSLGQAAQ [NDUFAF3],0.117,53.4 °C,53.5 °C,-0.0203,-0.2,-2.08
MATALSEEELDNEDYYSLLNVRREASSEELKAAYRRLCMLYHPDKHRDPELKSQAERLFNLVHQAYEVLSDPQTRAIYDIYGKRGLEMEGWEVVERRRTPAEIREEFERLQREREERRLQQRTNPKGTISVGVDATDLFDRYDEEYEDVSGSSFPQIEINKMHISQSIEAPLTATDTAILSGSLSTQNGNGGGSINFALRRVTSAKGWGELEFGAGDLQGPLFGLKLFRNLTPRCFVTTNCALQFSSRGIRPGLTTVLARNLDKNTVGYLQWRWGIQSAMNTSIVRDTKTSHFTVALQLGIPHSFALISYQHKFQDDDQTRVKGSLKAGFFGTVVEYGAERKISRHSVLGAAVSVGVPQGVSLKVKLNRASQTYFFPIHLTDQLLPSAMFYATVGPLVVYFAMHRLIIKPYLRAQKEKELEKQRESAATDVLQKKQEAESAVRLMQESVRRIIEAEESRMGLIIVNAWYGKFVNDKSRKSEKVKVIDVTVPLQCLVKDSKLILTEASKAGLPGFYDPCVGEEKNLKVLYQFRGVLHQVMVLDSEALRIPKQSHRIDTDG [DNAJC11],-0.172,52.6 °C,52.3 °C,-0.0355,0.0819,-0.993
MATASPAADGGRGRPWEGGLVSWPPAPPLTLPWTWMGPSWGQHPGHWGFPALTEPSASPAAGLGIFEVRRVLDASGCSMLAPLQTGAARFSSYLLSRARKVLGSHLFSPCGVPEFCSISTRKLAAHGFGASMAAMVSFPPQRYHYFLVLDFEATCDKPQIHPQEIIEFPILKLNGRTMEIESTFHMYVQPVVHPQLTPFCTELTGIIQAMVDGQPSLQQVLERVDEWMAKEGLLDPNVKSIFVTCGDWDLKVMLPGQCQYLGLPVADYFKQWINLKKAYSFAMGCWPKNGLLDMNKGLSLQHIGRPHSGIDDCKNIANIMKTLAYRGFIFKQTSKPF [ERI3],0.0291,,54.7 °C,-0.0837,0.384,-0.0416
MATEHVNGNGTEEPMDTTSAVIHSENFQTLLDAGLPQKVAEKLDEIYVAGLVAHSDLDERAIEALKEFNEDGALAVLQQFKDSDLSHVQNKSAFLCGVMKTYRQREKQGTKVADSSKGPDEAKIKALLERTGYTLDVTTGQRKYGGPPPDSVYSGQQPSVGTEIFVGKIPRDLFEDELVPLFEKAGPIWDLRLMMDPLTGLNRGYAFVTFCTKEAAQEAVKLYNNHEIRSGKHIGVCISVANNRLFVGSIPKSKTKEQILEEFSKVTEGLTDVILYHQPDDKKKNRGFCFLEYEDHKTAAQARRRLMSGKVKVWGNVGTVEWADPIEDPDPEVMAKVKVLFVRNLANTVTEEILEKAFSQFGKLERVKKLKDYAFIHFDERDGAVKAMEEMNGKDLEGENIEIVFAKPPDQKRKERKAQRQAAKNQMYDDYYYYGPPHMPPPTRGRGRGGRGGYGYPPDYYGYEDYYDYYGYDYHNYRGGYEDPYYGYEDFQVGARGRGGRGARGAAPSRGRGAAPPRGRAGYSQRGGPGSARGVRGARGGAQQQRGRGVRGARGGRGGNVGGKRKADGYNQPDSKRRQTNNQNWGSQPIAQQPLQGGDHSGNYGYKSENQEFYQDTFGQQWK [SYNCRIP],0.0281,51.3 °C,50.8 °C,0.0879,-1.08,-0.356
MATEQRPFHLVVFGASGFTGQFVTEEVAREQVDPERSSRLPWAVAGRSREKLQRVLEKAALKLGRPTLSSEVGIIICDIANPASLDEMAKQATVVLNCVGPYRFYGEPVIKACIENGASCIDISGEPQFLELMQLKYHEKAADKGVYIIGSSGFDSIPADLGVIYTRNKMNGTLTAVESFLTIHSGPEGLSIHDGTWKSAIYGFGDQSNLRKLRNVSNLKPVPLIGPKLKRRWPISYCRELKGYSIPFMGSDVSVVRRTQRYLYENLEESPVQYAAYVTVGGITSVIKLMFAGLFFLFFVRFGIGRQLLIKFPWFFSFGYFSKQGPTQKQIDAASFTLTFFGQGYSQGTGTDKNKPNIKICTQVKGPEAGYVATPIAMVQAAMTLLSDASHLPKAGGVFTPGAAFSKTKLIDRLNKHGIEFSVISSSEV [SCCPDH],-0.086,53.2 °C,54 °C,0.0063,0.42,-2.32

# Source: the supplement of paper PMC5998384
